Fewer inactive variants are shown than the library holds.
B1: TPR 5TU (parent)
chain: GGAUCUUCUCGAUCUAACAAAAAAGACAAAUCUGCCACAAAGCUUGAGAGCAUCUUCGGAUGCAGAGGCGGCAGCCUUCGGUGGCGCGAUAGCGCCAACGUUCUCAACUAUGACACGCAAAACGCGUGCUCCGUUGAAUGGAGUUUAUCAUG

Variants of: B1
Assay: polymerase ribozyme fitness, log enrichment relative to wild type (log ratio); higher = more active; in vitro selection for triplet polymerase activity
In short: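 In triplicate, a single round of in vitro selection was run on each mutant library, PCR-built and transcribed, covering one subunit of a heterodimeric triplet polymerase ribozyme. Frozen incubation at −7 °C followed annealing with a biotinylated primer, partner subunit and triplets, and extended constructs were then gel-excised, streptavidin-captured and taken through RT-PCR. Fitness is the logarithm of genotype enrichment over wild-type enrichment, from inverse-variance-weighted replicate averages of Illumina-sequenced inputs and outputs. […] only genotypes with ≥10 input reads and ≥1 read per output were kept.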

| Variant | polymerase ribozyme fitness (log ratio) |
| --- | --- |
| A49G C54A C116G A121U | -2.34 |
| G50C A89U G94U C96U A115G | ≤ -4.2 |
| G50C C87U A122U | -3.11 |
| C51A G94C | -1.47 |
| C51G G62U G92A C96A | ≤ -4.2 |
| A49U A73G G86C A97U | ≤ -4.2 |
| G50A C76A C96U | -3.13 |
| C51G G80A G84U G140C | ≤ -4.2 |
| G50C G71U A97U | ≤ -4.2 |
| A49U A66G G84A C87U A98G | ≤ -4.2 |
| C51U C93G C116U G141A | -3.75 |
| C51A G94C A107U | ≤ -4.2 |
| A52C G58C C85A | -3.96 |
| C51U G84A G117C U135A | -0.541 |
| A49G C51G U78C C96G | -4.14 |
| G50A A64G | -3.77 |
| A49U U55A A106G | -0.994 |
| G50C A66G C96U U146G | ≤ -4.2 |
| G50U C57A C76A A122U C131G | ≤ -4.2 |
| G50C G58A | -1.56 |
| C51A U56A C95A A98U | -1.46 |

| Variant | polymerase ribozyme fitness (log ratio) |
| --- | --- |
| A49U G59A C85A | -3.41 |
| A49C U56A A113U G152U | -3.93 |
| A49C U56A A64G C87U | ≤ -4.2 |
| A49G U53A G59A A142U | -2.64 |
| C51U G58C G62U C69U C96G | -3.67 |
| A49U C69U | -1.86 |
| C51U G124A G133C G140A A150G | ≤ -4.2 |
| C51A A52C C75A G83U G88C A91G C123G G126U A147U U151G | ≤ -4.2 |
| G50C A98U U101A | ≤ -4.2 |
| G50A C75U G83U C93U G141A | ≤ -4.2 |
| C51U U53C C63U G74C G86C A89U A113U | ≤ -4.2 |
| A52C A142G | -1.98 |
| G50U A52C A107G | ≤ -4.2 |
| G50U C105U | 0.638 |
| C51U C79U | -3.01 |
| C51U G58A G124C | -1.29 |
| A49C U55G U61A C96A U111G A119U U148C | ≤ -4.2 |
| C51G U53G C75A C103A | ≤ -4.2 |
| A49G G50A U56A C95U U101C U111G | ≤ -4.2 |
| A49U C85A | -1.86 |
| A49U C85U | -2.25 |

| Variant | polymerase ribozyme fitness (log ratio) |
| --- | --- |
| C51U G141A | 0.523 |
| G50A U55G C87U | -1.24 |
| A49U C76A U77G C95G C96U C108U A142G | ≤ -4.2 |
| G50C G83C G88U U146A | ≤ -4.2 |
| C51U C116G G140C | -4.07 |
| A49U G58C C75G C118G G124A | ≤ -4.2 |
| A52C C95U C99U | -3.18 |
| C51A C95U A119G | -1.34 |
| C51G G94C C149U | -3.9 |
| G50A U55A A97C A147U U148A | ≤ -4.2 |
| A52C | -0.883 |
| G50C G94A U127C G133U A138C | ≤ -4.2 |
| C51A C99G G141C | ≤ -4.2 |
| G50C U55G G67A C75A C87U U134G A137G | ≤ -4.2 |
| C51U G62C G70A A115U C116A | ≤ -4.2 |
| A49G G50U C87G U144G | ≤ -4.2 |
| C51A A52C C116U C118A A142U | ≤ -4.2 |
| G50C G86A | ≤ -4.2 |
| G50A A52C C72G A97C C99A U139C G143A | ≤ -4.2 |
| G50U C95A C125G | -0.894 |
| G50U C87U | -1.51 |

| Variant | polymerase ribozyme fitness (log ratio) |
| --- | --- |
| C51G C95U | -2.73 |
| A52C C85G G92U | ≤ -4.2 |
| G50U U61A C93G C105U A107G | ≤ -4.2 |
| C51U U53G C93G U127C | ≤ -4.2 |
| C51A C96U | -1.91 |
| C51A G136A | -0.23 |
| A49U U55G G58A C123A G126U U148A | ≤ -4.2 |
| G50U C72U A97C | -0.611 |
| A49C U145G | ≤ -4.2 |
| C51G U53A G83C C118U G128A | ≤ -4.2 |
| C51A C54G G59C G84A C116G | -3.63 |
| G50C C93A C103G A113G A115U G140C | ≤ -4.2 |
| G50U C57A C72U G84A | -0.724 |
| G50A A73U C96G A98U A120U A137G | ≤ -4.2 |
| C51A G81A A147G U148G | ≤ -4.2 |
| G50C C87U A113C C116A G143U U145C | ≤ -4.2 |
| C51G G88A | ≤ -4.2 |
| C51U C103A A121C | -1 |
| G50A C79U A138G | ≤ -4.2 |
| G50U A89U C93U C99U U145A | -3.4 |

Source: the RNAGym collection of RNA variant scans (doi:10.1073/pnas.2313332121)
